Biological target: cdk5_rat Cdk5 (UniProt Q03114)

BDNF/NT-3 growth factors receptor (Rattus norvegicus (Rat)), Q63604 S478A
effect of a mutation on the interaction: decreasing interaction

BDNF/NT-3 growth factors receptor (Rattus norvegicus (Rat)), Q63604 T489A
effect of a mutation on the interaction: decreasing interaction

Reference: IntAct's records for PubMed 17341134
